Reference: publication PMC5390017

Columns and labels:
[1] = target: tau phosphopeptide of the C-terminal domain phosphorylated at S422 (cognate peptide of CBTAU-22.1) (human); experiment: ITC; MicroCal Auto iTC200, in solution; peptide ~40 µM, mAb 200 µM, 20 steps of 2 µl; fitted to a single set of sites, mAb:tau peptide = 1:2
[2] = target: tau phosphopeptide 194-212 phosphorylated at S202 and T205 (human) (UniProt P10636); experiment: as above

Chain of tau phosphopeptide of the C-terminal domain phosphorylated at S422 (cognate peptide of CBTAU-22.1) (human) (P10636 721-746): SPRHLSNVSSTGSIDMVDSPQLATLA

B1: CBTAU-22.1 (human IgG1) (antibody, V domains shown)
VH: QVQLVQSGAEVKKPGAPVKVSCETSGYRFSDYNVHWVRQAPGQGPEWIGRISPNSGGTKYAQKFQGRVTMTRDMSMNTAYMELSGLRSDDTAVYYCVRGHCDGTTCSRAYWGQGTLVTVSS
VL: DVVMTQSPLSLPVTPGEPASISCRSSQSLLHRSGHKYLHWYLQRPGQSPQVLIYLGSNRASGVPDRFSGSGSGTDFTLKISRVEAEDVGLYYCMQTLQTPWTFGQGTKVEIK
Kd [1]: 32.7 µM

B2: CBTAU-7.1 (human IgG1) (antibody, V domains shown)
VH: QVQLVESGGGLVQPGGSLRLSCAASGFTFSSYWMHWVRQAPGKGLVWVSRINSDGSDTNYADSVKGRFTFSRDNAKNTLYLQMTSLRAEDTAIYYCTRGRSYGFFDYWGQGALVTVSS
VL: DIVMTQSPDTLSLSPGERATLSCRASQIISSNYLAWYQQQPGQAPRLLIYGASSRATGIPDRFSGSGSATDFTLTISRLEPEDFAVYYCQQYGTSPRTFGQGTKLEIK
Kd [2]: 5.8 µM
